From paper PMC11661173 (bioRxiv, 2025) come the findings set out here.

One assay addresses T1, Recombinant ERα-LBD (human, UniProt P03372 302-595).
T1 sequence (looked up): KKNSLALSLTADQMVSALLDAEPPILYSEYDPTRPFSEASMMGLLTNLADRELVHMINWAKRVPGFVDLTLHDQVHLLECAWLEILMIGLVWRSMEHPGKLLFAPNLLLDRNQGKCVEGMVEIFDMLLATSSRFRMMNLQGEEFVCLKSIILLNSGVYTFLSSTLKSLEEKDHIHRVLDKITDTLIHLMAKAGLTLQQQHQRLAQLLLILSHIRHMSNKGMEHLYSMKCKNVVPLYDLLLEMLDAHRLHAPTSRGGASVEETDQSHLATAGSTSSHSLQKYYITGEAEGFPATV
As to the kind of experiment: SPR.

Another assay concerns the target T2, Recombinant AR-LBD (human, UniProt P10275 672-920).
T2 sequence (looked up): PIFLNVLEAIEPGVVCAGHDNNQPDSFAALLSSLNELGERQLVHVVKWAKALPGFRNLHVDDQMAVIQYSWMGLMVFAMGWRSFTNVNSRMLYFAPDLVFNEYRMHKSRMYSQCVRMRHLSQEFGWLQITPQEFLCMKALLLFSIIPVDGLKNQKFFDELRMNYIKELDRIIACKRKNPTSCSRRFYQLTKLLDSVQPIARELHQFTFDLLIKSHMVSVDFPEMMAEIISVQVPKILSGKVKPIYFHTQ
Put plainly: SPR.

On to KPEWPAAELLLSLLGRLLVHQFSNKSTE [human NIPBL-C2^WT peptide], for which the binding result with Recombinant ERα-LBD and with Recombinant AR-LBD was “binds” throughout.
